Patent US20210292396A1

What was measured:
Assay in all cases: cell-based or functional assay
[1] = molecular target: Env of HIV isolate P0402.c2.11 (clade G) (HIV)
[2] = molecular target: HIV Env of isolate TH023.6 (HIV)
[3] = molecular target: HIV Env of isolate UG024.2 (HIV)
[4] = molecular target: Env of HIV isolate Bal.01 (clade B) (HIV)
[5] = molecular target: HIV Env of isolate TZBD.02 (HIV)
[6] = molecular target: HIV Env of isolate 246-F3.C10.2 (HIV)
[7] = molecular target: HIV Env of isolate T33-7 (HIV)
[8] = molecular target: Env of HIV isolate X2131.C1.B5 (clade G) (HIV)
[9] = molecular target: Env of HIV isolate MI369.A5 (clade A) (HIV)
[10] = molecular target: HIV Env of isolate ZM197.7 (HIV)
[11] = molecular target: HIV Env of isolate C2101.c1 (HIV)
[12] = molecular target: Env of HIV isolate 0439.v5.c1 (clade A) (HIV)
[13] = molecular target: Env of HIV isolate BJOX028000.10.3 (clade AE) (HIV)
[14] = molecular target: HIV Env of isolate ZM109.4 (HIV)
[15] = molecular target: HIV Env of isolate Q842.d12 (HIV)
[16] = molecular target: HIV Env of isolate 96ZM651.02 (HIV)
[17] = molecular target: Env of HIV isolate TZBD.02 (clade C) (HIV)
[18] = molecular target: HIV Env of isolate DU172.17 (HIV)
[19] = molecular target: Env of HIV isolate CM244.ec1 (clade AE) (HIV)
[20] = molecular target: Env of HIV isolate QH0515.01 (clade B) (HIV)
[21] = molecular target: HIV Env of isolate 0815.v3.c3 (HIV)
[22] = molecular target: HIV Env of isolate 235-47 (HIV)
[23] = molecular target: HIV Env of isolate BJOX010000.06.2 (HIV)
Envelope of SVA.MLV = molecular target: Envelope of SVA.MLV
[24] = molecular target: HIV Env of isolate 3468.v1.c12 (HIV)
[25] = molecular target: HIV Env of isolate A03349M1.vrc4a (HIV)
[26] = molecular target: HIV Env of isolate CNE31 (HIV)
[27] = molecular target: Env of HIV isolate 3415.v1.c1 (clade A) (HIV)
[28] = molecular target: HIV Env of isolate ZM135.10a (HIV)
[29] = molecular target: HIV Env of isolate DU123.06 (HIV)
[30] = molecular target: Env of HIV isolate CNE10 (clade B) (HIV)
[31] = molecular target: HIV Env of isolate 6322.v4.c1 (HIV)
[32] = molecular target: HIV Env of isolate CAP210.E8 (HIV)
[33] = molecular target: HIV Env of isolate DU422.01 (HIV)
[34] = molecular target: Env of HIV isolate 7165.18 (clade B) (HIV)
[35] = molecular target: HIV Env of isolate 6545.v4.c1 (HIV)
[36] = molecular target: HIV Env of isolate 57128.vrc15 (HIV)
[37] = molecular target: HIV Env of isolate TRJO.58 (HIV)
[38] = molecular target: Env of HIV isolate 242-14 (clade AG) (HIV)
[39] = molecular target: HIV Env of isolate SC422.8 (HIV)
[40] = molecular target: Env of HIV isolate T33-7 (clade AG) (HIV)
[41] = molecular target: Env of HIV isolate NKU3006.ec1 (clade D) (HIV)
[42] = molecular target: HIV Env of isolate X1632.S2.B10 (HIV)
[43] = molecular target: Env of HIV isolate Q259.17 (clade A) (HIV)
[44] = molecular target: HIV Env of isolate 25925-2.22 (HIV)
[45] = molecular target: HIV Env of isolate CAP244.D3 (HIV)
[46] = molecular target: Env of HIV isolate X1254.c3 (clade G) (HIV)
[47] = molecular target: HIV Env of isolate CM244.ec1 (HIV)
[48] = molecular target: HIV Env of isolate 26191-2.48 (HIV)
[49] = molecular target: HIV Env of isolate CNE40 (HIV)
[50] = molecular target: HIV Env of isolate 0077.v1.c16 (HIV)
[51] = molecular target: Env of HIV isolate CNE14 (clade B) (HIV)
[52] = molecular target: Env of HIV isolate 26191-2.48 (clade C) (HIV)
[53] = molecular target: Env of HIV isolate CNE57 (clade B) (HIV)

For PGT121 (antibody), the IC50, pseudovirus neutralization [1] was 0.0123 µg/mL, the IC80 [2] was > 50 µg/mL and the IC80, pseudovirus neutralization [3] was > 50 µg/mL. For the same substance, the IC50, pseudovirus neutralization [4] was 0.0113 µg/mL, the IC80, pseudovirus neutralization [5] was 0.137 µg/mL and the IC80 [6] was > 50 µg/mL. The IC80 [7] was > 50 µg/mL, the IC50, pseudovirus neutralization [8] was 0.013 µg/mL and the IC50, pseudovirus neutralization [9] was 0.0507 µg/mL. For the same substance, the IC80, pseudovirus neutralization [10] was > 50 µg/mL, the IC80 [11] was > 50 µg/mL and the IC50, pseudovirus neutralization [12] was > 50 µg/mL. The IC50, pseudovirus neutralization [13] was > 50 µg/mL, the IC80, pseudovirus neutralization [14] was > 50 µg/mL and the IC80 [15] was 0.0597 µg/mL. For the same substance, the IC80, pseudovirus neutralization [16] was 0.0613 µg/mL, the IC50, pseudovirus neutralization [17] was 0.0257 µg/mL and the IC80, pseudovirus neutralization [18] was 0.41 µg/mL. The IC50, pseudovirus neutralization [19] was > 50 µg/mL, the IC50, pseudovirus neutralization [20] was 2.83 µg/mL and the IC80 [21] was 0.112 µg/mL. The IC80 [22] was 0.614 µg/mL, the IC80 [23] was > 50 µg/mL and the IC80, pseudovirus neutralization (Envelope of SVA.MLV) was > 50 µg/mL. It also gave an IC80 [24] of 0.413 µg/mL, an IC80, pseudovirus neutralization [25] of 0.359 µg/mL and an IC80, pseudovirus neutralization [26] of 2.08 µg/mL. The IC50, pseudovirus neutralization [27] was > 50 µg/mL, the IC80, pseudovirus neutralization [28] was 3.69 µg/mL and the IC80, pseudovirus neutralization [29] was 0.135 µg/mL. For the same substance, the IC50, pseudovirus neutralization [30] was 0.0193 µg/mL, the IC80, pseudovirus neutralization [31] was > 50 µg/mL and the IC80, pseudovirus neutralization [32] was > 50 µg/mL. For the same substance, the IC80, pseudovirus neutralization [33] was 0.176 µg/mL, the IC50, pseudovirus neutralization [34] was 0.0363 µg/mL and the IC80 [35] was > 50 µg/mL. The IC80, pseudovirus neutralization [36] was > 50 µg/mL, the IC80 [37] was 18.6 µg/mL and the IC50, pseudovirus neutralization [38] was > 50 µg/mL. For the same substance, the IC80 [39] was 0.3 µg/mL, the IC50, pseudovirus neutralization [40] was > 50 µg/mL and the IC50, pseudovirus neutralization [41] was > 50 µg/mL. The IC80, pseudovirus neutralization [42] was > 50 µg/mL, the IC50, pseudovirus neutralization [43] was > 50 µg/mL and the IC80, pseudovirus neutralization [44] was 0.0867 µg/mL. The IC80, pseudovirus neutralization [45] was > 50 µg/mL, the IC50, pseudovirus neutralization [46] was 0.0347 µg/mL and the IC80 [47] was > 50 µg/mL. For the same substance, the IC80, pseudovirus neutralization [48] was 0.236 µg/mL, the IC80, pseudovirus neutralization [49] was 1.21 µg/mL and the IC80, pseudovirus neutralization [50] was > 50 µg/mL. For the same substance, the IC50, pseudovirus neutralization [51] was 0.0103 µg/mL, the IC50, pseudovirus neutralization [52] was 0.085 µg/mL and the IC50, pseudovirus neutralization [53] was 0.0283 µg/mL.
